Changes are numbered by the printed parent chain.
T1: human myostatin (human) (UniProt O14793)
T1 sequence (biotinylated in selections and radioactive assays (site not stated), looked up): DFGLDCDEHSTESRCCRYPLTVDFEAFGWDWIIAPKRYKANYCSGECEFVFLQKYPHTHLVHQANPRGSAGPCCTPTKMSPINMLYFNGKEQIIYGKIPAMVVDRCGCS

B1: M56, E. coli-produced (designed binder)
chain: MTIPEIIIKVRGTQVVGSDMTVIVEFSNPFKETLRNVWVHLDGPGVTRPMKKMFSEIRPNSTVQWEEVVRPWVSGHRKLIARCSLSPWHVYGELDVQIQRRHHHHHH
B2: M71, E. coli-produced (designed binder)
chain: B1 chain with S27T, N36S
B3: M07, E. coli-produced (designed binder)
chain: B1 chain with S27T, N36S, S55R, R58P, N60K, S61T, S84Q, S86L
B4: M3-1, E. coli-produced (designed binder)
chain: MTIPEIIIKVRGTQVVGSDMTVIVEFTNPLKETLRNVWVHLDGPGVTRPMKKMFRAIPMNHKVQWEEVVRPWVSGHRKLIASMPQLFHIHVYGELDVQIQRRHHHHHH

How the values were obtained:
human myostatin (human) [1] = biological target: T1, human myostatin (human); experiment: cell-based or functional assay
human myostatin (human) [2] = biological target: T1, human myostatin (human)

Row | Binder | MPC-11 cell proliferation assay, IC50 (human myostatin (human) [1]) | EC50 (read off the curve); blocking of myostatin-induced inhibition of MPC-11 proliferation (human myostatin (human) [2])
1 | B1 | 150 to 200 nM | 
2 | B2 | 150 to 200 nM | 
3 | B3 | 150 to 200 nM | 
4 | B4 |  | 30 nM
